In patent US20130216547A1 (Regeneron, published 2013):

T1: human big-endothelin-1 (big-ET-1) (human)
T1 peptide: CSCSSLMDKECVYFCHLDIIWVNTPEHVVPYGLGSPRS

T2: small-ET-1 (endothelin-1) (human)
T2 construct: 21 amino acid peptide, same for mouse and human; also called human small-ET-1; EDN-1
T2 peptide: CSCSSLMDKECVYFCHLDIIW

T3: mouse big-ET-1 (mouse)
T3 peptide: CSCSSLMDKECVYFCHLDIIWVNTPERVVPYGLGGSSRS

B1: H1M6492N (antibody, V domains shown)
VH: EVQLVESGGGLVKPGGSLRVSCVASGFTFSNAWMTWVRQTPGKGLECVGRIKSRTDGGTVDYVAPVKGRFTISRDDSKNTLYLQMNSLKAEDTAVYYCRADLDYWGQGTLVTVSS
VL: DVVMTQSPLSLPVSLGQPASISCRSSQSLVHSDGITYLNWFQQRPGQSPRRLIYKISNRDSGVPDRFSGSGSGTDFTLKFSRVEAEDVGVYFCMQGTHWPYTFGQGTKLEIK
notes: Hybridoma antibody, human variable domains, mouse constant domains; prefix H1M marks the Fc region (isotype not spelled out)
B2: H1M6494N (antibody, V domains shown)
VH: EVQLVESGGGLVKPGGSLRVSCVASGFTFSNAWMTWVRQTPGKGLECVGRIKSRTDGGTVDYVAPVKGRFTISRDDSKNTLYLQMNSLKAEDTAVYYCRADLDYWGQGTLVTVSS
VL: DVVMTQSPLSLPVSLGQPASISCRSSQSLVHSDGITYLNWFQQRPGQSPRRLIYKISNRDSGVPDRFSGSGSGTDFTLKFSRVEAEDVGVYFCMQGTHWPYTFGQGTKLEIK
notes: as for B1
B3: H2M6490N (antibody, V domains shown)
VH: EVQLLESGGGLVQPGGSLRLSCAASGFTFSSYAMTWVRQAPGKGLECISAISGSGYSTYYADSMKGRFSISRDNSKNTLYLQMNRLRAEDTAVYYCTKGGRILEWLLPFDFWGQGTLVTVSS
VL: DVVMTQSPLSLPVTLGQPASISCRSSQSLVYSDGNTYLIWFQQRPGQSPRRLIYKVSNRDSGVPDRFSGSGSGTDFTLIISRVEAEDVGLYYCMQGTHWPPTFGGGTKVEIK
notes: Hybridoma antibody, human variable domains, mouse IgG2 Fc (prefix H2M)
B4: H4H6353P (antibody, V domains shown)
VH: EVQLVESGGGLVKPGGSLRLSCAASGFSFNYAWMSWVRQAPGKGLEWIGRIKSKINGGTTDYTAPVKGRFTISRDDSKNTLYLQMNSLKTEDTAVYYCRGDEDFWGQGTLVTVSS
VL: DVVMTQSPLSLPVTLGQPASISCRSSQSLVYSDGFTYLNWFRQRPGQSPRRLIYKVSNRDSGVPDRFSGSGSGTDFTLRISRVEAEDVGIYYCMQGTHWPYTFGQGTKLEIK
notes: Human IgG4 Fc (prefix H4H)
B5: H4H6328P (antibody, V domains shown)
VH: QVQLVESGGGVVQPGRSLRLSCAASGFTFSSYGMHWVRQAPGKGLEWVAVIWYDGSDKYYADSVKGRFTISRDNSKNTLYLQMNSLRAEDTAVYYCARDGYGSRGNYFDYWGQGTLVTVSS
VL: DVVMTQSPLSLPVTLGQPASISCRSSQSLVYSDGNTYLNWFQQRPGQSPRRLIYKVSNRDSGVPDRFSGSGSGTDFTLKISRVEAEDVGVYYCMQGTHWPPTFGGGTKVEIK
notes: Human IgG4 Fc (prefix H4H)
B6: H2M6495N (antibody, V domains shown)
VH: QVQLVESGGGVVQPGRSLRLSCAASGFTFRSYGMHWVRQAPGKGLEWVAVIWYDGSDKYYADSVKGRFTISRDNSKNTLYLQMNSLRAEDTAVYFCAKDEYKTRGGYFDYWGQGTLVTVSS
VL: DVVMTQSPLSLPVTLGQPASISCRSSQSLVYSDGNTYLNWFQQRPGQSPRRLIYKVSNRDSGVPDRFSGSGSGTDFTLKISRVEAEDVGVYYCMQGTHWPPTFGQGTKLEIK
notes: as for B3
B7: H4H6495N (antibody, V domains shown)
VH: QVQLVESGGGVVQPGRSLRLSCAASGFTFRSYGMHWVRQAPGKGLEWVAVIWYDGSDKYYADSVKGRFTISRDNSKNTLYLQMNSLRAEDTAVYFCAKDEYKTRGGYFDYWGQGTLVTVSS
VL: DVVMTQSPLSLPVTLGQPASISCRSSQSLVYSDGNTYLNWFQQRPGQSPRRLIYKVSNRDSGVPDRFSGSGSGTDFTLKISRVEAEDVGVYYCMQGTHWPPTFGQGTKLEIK
notes: Human IgG4 Fc version of 6495N; also called 6495N (human IgG4 format)
B8: H4H6334P (antibody, V domains shown)
VH: EVQLVESGGGLVKPGGSLRLSCAVSGFTFSIDWMIWVRQAPGTGLEWVGRIKRKTDGGTTDYAAPVKGRFTISRDDSKNTLYLQMNSLKTEDTAIYYCATGGFERVGQGTLVTVSS
VL: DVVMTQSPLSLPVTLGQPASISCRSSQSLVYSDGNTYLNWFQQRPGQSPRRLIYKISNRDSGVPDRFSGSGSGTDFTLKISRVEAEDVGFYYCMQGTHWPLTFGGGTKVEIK
notes: Human IgG4 Fc (prefix H4H)
B9: H4H6340P (antibody, V domains shown)
VH: EVQLVESGGGLVQPGGSLRLSCAASGFTFSSSAMSWVRQAPGKGLEWVSAISGSGVGTYYAASVKGRFTISRDNSKNILYLQMNDLRAEDTALYYCPKARTGTHAFDIWGQGTMVTVSS
VL: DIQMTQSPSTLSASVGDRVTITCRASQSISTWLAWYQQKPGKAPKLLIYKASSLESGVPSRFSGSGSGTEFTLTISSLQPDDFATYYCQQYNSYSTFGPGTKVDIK
notes: Human IgG4 Fc (prefix H4H)
B10: H4H6347P (antibody, V domains shown)
VH: EVQLVESGGGLVQPGGSLRLSCAASGFTFSNYAMSWVRQAPGKGLEWVSAISGSGVGTYYAASVKGRFTISRDNSKNTLYLQMNSLRAEDTAVYYCPKARTGTHAFDIWGQGTMVTVSS
VL: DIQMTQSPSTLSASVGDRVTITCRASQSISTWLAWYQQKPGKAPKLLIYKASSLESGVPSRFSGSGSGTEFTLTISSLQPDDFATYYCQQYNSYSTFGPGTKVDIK
notes: Human IgG4 Fc (prefix H4H)
B11: H2M6486N (antibody, V domains shown)
VH: EVQLVESGGGLVKPGGSLRLSCAASGFTFSSYNMNWVRQAPGKGLEWVSSISSSSSYIYYADSVKGRFTISRDNAKNSLYLQMNSLRAEDTAVYYCARDNWNYSFDYWGQGTLVTVSS
VL: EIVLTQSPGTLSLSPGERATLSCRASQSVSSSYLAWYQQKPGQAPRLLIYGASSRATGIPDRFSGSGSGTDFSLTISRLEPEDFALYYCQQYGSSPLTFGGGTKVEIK
notes: as for B3
B12: H4H6332P (antibody, V domains shown)
VH: EVQLVESGEGLVQPGGSLRLSCAASGFIFSSYAMSWVRQAPGKGLEWVSAISGSGVGTYYADSVKGRFTISRDNSKNTLYLQMNSLRAEDTAVYFCAKTLSGTHAFDIWGQGTMVTVSS
VL: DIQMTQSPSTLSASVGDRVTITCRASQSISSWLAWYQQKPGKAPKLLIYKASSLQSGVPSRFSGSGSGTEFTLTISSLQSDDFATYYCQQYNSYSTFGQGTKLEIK
notes: Human IgG4 Fc (prefix H4H)

How the values were obtained:
[1] = biological target: T1, human big-endothelin-1 (big-ET-1); experiment: cell-based or functional assay
[2] = biological target: T2, small-ET-1 (endothelin-1); experiment: SPR (Biacore T200), 37 C, mAb capture, peptide analyte
Experimental: (§1) Measurements were conducted on a T200 Biacore instrument (Biacore Life Sciences division of GE Healthcare, Piscataway, N.J.). […] Peptide binding was monitored for 3 min while dissociation of mAb-bound peptide was monitored for 4 min in HBST running buffer (0.01 M HEPES pH 7.4, 0.15 M NaCl, 3 mM EDTA, 0.005% v/v Surfactant P20). Kinetic association (kₐ) and dissociation (kd) rate constants were determined by processing and fitting the data to a 1:1 binding model using Scrubber 2.0 curve fitting software.

[3] = biological target: T1, human big-endothelin-1 (big-ET-1); experiment: as above
Experimental: as §1

[4] = biological target: T1, human big-endothelin-1 (big-ET-1); experiment: cell-based or functional assay
mouse big-ET-1 [5] = biological target: T3, mouse big-ET-1; experiment: cell-based or functional assay
mouse big-ET-1 [6] = biological target: T3, mouse big-ET-1; experiment: SPR (Biacore T200), 37 C, mAb capture, peptide analyte
Experimental: as §1

[7] = biological target: T1, human big-endothelin-1 (big-ET-1); experiment: as above
Experimental: as §1

[8] = biological target: T1, human big-endothelin-1 (big-ET-1); experiment: SPR (Biacore T200), 37 C, mAb capture, peptide analyte; hybridoma mAb (H2M, mouse Fc), captured on rabbit anti-mouse surface; Table 2
Experimental: as §1

[9] = biological target: T1, human big-endothelin-1 (big-ET-1); experiment: SPR (Biacore T200), 37 C, mAb capture, peptide analyte; human IgG4 format (H4H), captured on mouse anti-human Fc surface; Table 3
Experimental: as §1

Row | Binder | Blocking IC50(M), 10 nM hBig-ET-1 + 3 nM hECE1 [Trial 1]; 293/ETaR/NFAT-Luc luciferase [1] [M] | binding result [2] | Kd [3] [nM] | T½ [3] [min] | koff [3] [s⁻¹] | kon [3] [M⁻¹ s⁻¹] | Blocking IC50(M), 10 nM hBig-ET-1 + 3 nM hECE1; 293/ETaR/NFAT-Luc luciferase [4] [M] | Blocking IC50(M), 20 nM mBig-ET-1 + 5 nM mECE1; 293/ETaR/NFAT-Luc luciferase (mouse big-ET-1 [5]) [M] | Kd (mouse big-ET-1 [6]) [nM] | T½ (mouse big-ET-1 [6]) [min] | koff (mouse big-ET-1 [6]) [s⁻¹] | kon (mouse big-ET-1 [6]) [M⁻¹ s⁻¹] | Kd [7] [nM] | Kd [8] [nM] | Kd [9] [nM]
1 | B1 | 1.5e-09 | no binding | 6.46 | 7 | 0.0016 | 248000 |  |  |  |  |  |  |  |  | 
2 | B2 | 1.5e-09 | no binding | 7.07 | 7 | 0.00169 | 239000 |  |  |  |  |  |  |  |  | 
3 | B3 | 1.9e-09 | no binding | 19.1 | 3 | 0.00399 | 209000 |  |  |  |  |  |  |  |  | 
4 | B4 |  | no binding | 1.02 | 10 | 0.00116 | 1.14e+06 | 1.8e-09 | > 1e-07 | 800 | 5 | 0.00236 | 2900 |  |  | 
5 | B5 |  | no binding | ≤ 0.00634 | 11600 | ≤ 1e-06 | 158000 | > 1e-07 | > 1e-07 |  |  |  |  | < 0.05 |  | 
6 | B6 | 4.3e-09 | no binding |  | 11600 | ≤ 1e-06 | 117000 |  |  |  |  |  |  | < 0.05 | ≤ 0.00853 | 
7 | B7 |  |  |  | 0.3 | 0.0399 | 606000 | 1.33e-08 |  |  |  |  |  |  |  | 65.9
8 | B8 |  |  | 0.043 | 133 | 8.68e-05 | 2.02e+06 | 6.8e-10 | > 1e-07 | 58 | 25 | 0.000456 | 7900 | < 0.05 |  | 
9 | B9 |  | no binding | 11 | 0.5 | 0.0249 | 2.3e+06 | 2.1e-09 | 1.5e-09 | 47 | 0.2 | 0.0603 | 1.3e+06 |  |  | 
10 | B10 |  | no binding | 13.2 | 0.5 | 0.0239 | 1.81e+06 | 1.5e-09 | 1e-09 | 13 | 0.3 | 0.0414 | 3.1e+06 |  |  | 
11 | B11 | 7.6e-09 | no binding | 239 | 0.1 | 0.0898 | 380000 |  |  | 160 | 0.1 | 0.135 | 830000 |  |  | 
12 | B12 |  | no binding | 29.5 | 0.3 | 0.0429 | 1.45e+06 | 3.1e-09 | 1.2e-09 | 100 | 0.1 | 0.196 | 2e+06 |  |  | 
